{
  "source": "paper PMC3949604",
  "binders": {"B1": {"name": "DRE gel shift probe (OL439/OL440) (dsDNA)", "DNA 1": "TCGAGTAGATCACGCAATGGGCCCAGC", "DNA 2": "TCGAGCTGGGCCCATTGCGTGATCTAC"}},
  "biological_target": "AhR (baculovirus);Arnt (baculovirus) (human;human, UniProt P35869;P27540 1-848;1-789, |)",
  "sequence (P35869 whole entry, chain 1 of 2)": "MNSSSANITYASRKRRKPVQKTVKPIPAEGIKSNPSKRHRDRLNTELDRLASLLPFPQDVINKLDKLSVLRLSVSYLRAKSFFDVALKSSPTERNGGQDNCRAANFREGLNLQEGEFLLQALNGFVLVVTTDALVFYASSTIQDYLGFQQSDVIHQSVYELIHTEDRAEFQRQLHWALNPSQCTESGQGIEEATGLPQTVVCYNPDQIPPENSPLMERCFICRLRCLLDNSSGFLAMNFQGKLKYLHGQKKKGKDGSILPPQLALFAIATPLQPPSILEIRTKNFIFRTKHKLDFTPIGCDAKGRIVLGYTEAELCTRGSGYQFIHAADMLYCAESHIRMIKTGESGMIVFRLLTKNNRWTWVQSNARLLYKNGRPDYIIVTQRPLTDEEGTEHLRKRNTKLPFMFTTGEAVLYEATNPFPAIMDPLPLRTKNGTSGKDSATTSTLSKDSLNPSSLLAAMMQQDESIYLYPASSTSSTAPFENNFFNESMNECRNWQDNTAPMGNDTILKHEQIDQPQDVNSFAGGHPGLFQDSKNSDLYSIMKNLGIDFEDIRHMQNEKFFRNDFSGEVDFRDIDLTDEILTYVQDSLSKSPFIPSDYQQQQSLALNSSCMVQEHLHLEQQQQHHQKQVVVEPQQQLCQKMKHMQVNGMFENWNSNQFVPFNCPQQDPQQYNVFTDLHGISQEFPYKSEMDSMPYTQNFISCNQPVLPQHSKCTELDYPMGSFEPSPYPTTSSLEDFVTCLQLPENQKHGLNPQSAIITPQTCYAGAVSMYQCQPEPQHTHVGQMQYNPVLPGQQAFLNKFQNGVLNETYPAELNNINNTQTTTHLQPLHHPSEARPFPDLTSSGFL",
  "sequence (P27540 whole entry, chain 2 of 2)": "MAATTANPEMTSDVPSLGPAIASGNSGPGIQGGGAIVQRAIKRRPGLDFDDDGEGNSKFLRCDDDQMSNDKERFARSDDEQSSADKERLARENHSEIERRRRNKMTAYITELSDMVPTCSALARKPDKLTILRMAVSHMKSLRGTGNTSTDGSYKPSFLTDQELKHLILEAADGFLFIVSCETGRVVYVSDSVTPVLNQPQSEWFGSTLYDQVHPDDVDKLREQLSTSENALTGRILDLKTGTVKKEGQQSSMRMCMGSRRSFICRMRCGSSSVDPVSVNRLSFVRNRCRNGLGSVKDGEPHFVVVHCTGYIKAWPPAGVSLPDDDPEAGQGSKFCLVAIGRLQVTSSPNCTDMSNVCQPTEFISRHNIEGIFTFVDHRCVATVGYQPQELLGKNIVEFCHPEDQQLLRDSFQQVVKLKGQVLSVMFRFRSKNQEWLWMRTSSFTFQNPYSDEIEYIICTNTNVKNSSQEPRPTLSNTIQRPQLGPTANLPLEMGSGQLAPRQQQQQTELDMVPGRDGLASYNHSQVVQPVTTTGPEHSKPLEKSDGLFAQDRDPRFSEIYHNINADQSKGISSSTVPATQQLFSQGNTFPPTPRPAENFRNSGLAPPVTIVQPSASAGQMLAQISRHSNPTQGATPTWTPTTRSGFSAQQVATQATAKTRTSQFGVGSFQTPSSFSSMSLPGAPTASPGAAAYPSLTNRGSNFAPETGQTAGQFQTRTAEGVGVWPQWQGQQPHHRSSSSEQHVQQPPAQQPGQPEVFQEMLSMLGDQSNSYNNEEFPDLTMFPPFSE",
  "assay": "EMSA",
  "data": [
    {"binder": "B1", "values": [
      {"measurement": "binding result", "value": "binds"}
    ]}
  ]
}
